The source of these data is patent US20060204974A1.

In this test the target is rat angiotensin type 1a receptor (AT1aR) (rat) (UniProt P25095). Description: cell-based or functional assay.
UniProt P25095, sequence (P25095 whole entry): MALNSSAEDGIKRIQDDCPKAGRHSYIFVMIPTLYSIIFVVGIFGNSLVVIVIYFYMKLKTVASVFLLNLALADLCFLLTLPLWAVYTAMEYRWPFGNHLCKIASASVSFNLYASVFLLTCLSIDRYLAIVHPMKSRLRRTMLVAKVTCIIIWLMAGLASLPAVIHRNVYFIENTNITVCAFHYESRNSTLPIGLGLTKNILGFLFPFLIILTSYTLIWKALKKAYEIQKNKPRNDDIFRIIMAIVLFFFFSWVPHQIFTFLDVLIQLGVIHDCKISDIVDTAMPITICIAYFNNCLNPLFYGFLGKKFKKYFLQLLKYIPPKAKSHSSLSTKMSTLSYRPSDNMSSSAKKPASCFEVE

As for “Angiotensin II (from UniProt P01019 25-476) (peptide)”, the Ang II (100 nM) stimulated inositol phosphate production, Ang II-basal (cpm), CHO cells stably expressing E1,2,3 was determined as 260 cpm; the Ang II (100 nM) stimulated inositol phosphate production, Ang II-basal (cpm), CHO cells stably expressing E1,3 was determined as 1320 cpm; the Ang II-induced IP production (cpm), 100 nM Ang II, CHO clones stably expressing QM worked out at 1640 cpm; the Ang II-induced IP production (cpm), 100 nM Ang II, CHO clones stably expressing WT came out at 322 cpm. Besides, the angiotensin II/basal inositol phosphate accumulation, 100 nM angiotensin II for 20 min, A10 cells transiently transfected with E2 plasmid (ratio (angiotensin II/basal)) came out at 1.35 and the angiotensin II/basal inositol phosphate accumulation, 100 nM angiotensin II for 20 min, A10 cells transiently transfected with ΔE2 plasmid (ratio (angiotensin II/basal)) came out at 1.8.
